± gives the standard deviation of the averaged measurements.
Tested on: ATP
Assay: switch fluorescence ratio, 500 uM ATP over buffer (Cy3 cluster intensity, sum of 5 cycles each) (fold (ratio)); higher = stronger signal-on switching upon ATP binding; sequences stand for … in TCGTCGGCAGCGTCAGATGTGTATAAGAGACAGTTTTTTTTTTTTTTTTTTTTTTTTT…TC
Conditions: aptamer strand: ATP DNA aptamer (quencher-CACCTGGGGGAGTATTGCGGAGGAAGG + anchor), 100 nM annealed; ATP concentration: 500 uM
Procedure, shortened: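 Values give the fluorescence ratio for each switch-domain sequence, averaged from per-cluster ratios of summed target-cycle to summed buffer-cycle Cy3 intensity. The Cy3-labelled switching-strand clusters sat on a modified Illumina MiSeq flow-cell, were annealed to 100 nM quencher-labelled ATP aptamer, and were imaged in selection buffer, then after 15 min with 500 uM ATP at 22 °C. Five cycles ran with NaOH stripping and re-annealing between them, and clusters outside 100-1000 RFU were excluded.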
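Further: ATP exposure 15 min at 22 °C before imaging.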

## GGGTATTGAT
  switch fluorescence ratio: 1.01 ± 0.042

## GGGTCAAATA
  switch fluorescence ratio: 0.982 ± 0.011

## GGGTCAACGC
  switch fluorescence ratio: 0.9974 ± 0.0036

## GGGTCAAGCG
  switch fluorescence ratio: 0.943 ± 0.017

## GGGTCAGGTA
  switch fluorescence ratio: 0.996 ± 0.03

## GGGTCCACAG
  switch fluorescence ratio: 1.01 ± 0.04

## GGGTCCATGG
  switch fluorescence ratio: 0.985 ± 0.024

## GGGTCCATTT
  switch fluorescence ratio: 1.01 ± 0.037

## GGGTCCCTTG
  switch fluorescence ratio: 1 ± 0.026

## GGGTCCGCGG
  switch fluorescence ratio: 1.04 ± 0.011

## GGGTCCGGCC
  switch fluorescence ratio: 0.992 ± 0.02

## GGGTCCTAAG
  switch fluorescence ratio: 0.975 ± 0.038

## GGGTCCTGCG
  switch fluorescence ratio: 1.04 ± 0.019

## GGGTCCTTGT
  switch fluorescence ratio: 1.01 ± 0.041

## GGGTCGATTT
  switch fluorescence ratio: 0.999 ± 0.01

## GGGTCGCGCA
  switch fluorescence ratio: 1.02 ± 0.029

## GGGTCGGACG
  switch fluorescence ratio: 1.028 ± 0.0088

## GGGTCGGCGA
  switch fluorescence ratio: 1.03 ± 0.011

## GGGTCGGGAG
  switch fluorescence ratio: 0.979 ± 0.027

## GGGTCTAAG
  switch fluorescence ratio: 0.987 ± 0.041

## GGGTCTGCAC
  switch fluorescence ratio: 0.997 ± 0.013

## GGGTCTGGTA
  switch fluorescence ratio: 1.02 ± 0.038

## GGGTCTTCGC
  switch fluorescence ratio: 0.991 ± 0.024

## GGGTCTTGGC
  switch fluorescence ratio: 1.0357 ± 0.00074

## GGGTCTTTTC
  switch fluorescence ratio: 1.11 ± 0.11

## GGGTCTTTTT
  switch fluorescence ratio: 1.02 ± 0.055

## GGGTGAACAT
  switch fluorescence ratio: 0.98659 ± 0.00029

## GGGTGACAAT
  switch fluorescence ratio: 1 ± 0.04

## GGGTGAGCGA
  switch fluorescence ratio: 1.05 ± 0.064

## GGGTGAGGAT
  switch fluorescence ratio: 1 ± 0.046

## GGGTGAGGGA
  switch fluorescence ratio: 1.01 ± 0.035

## GGGTGAGGGG
  switch fluorescence ratio: 1.01 ± 0.033

## GGGTGAGTTT
  switch fluorescence ratio: 1.038 ± 0.0051

## GGGTGATGTA
  switch fluorescence ratio: 0.996 ± 0.026

## GGGTGATTAA
  switch fluorescence ratio: 0.994 ± 0.017

## GGGTGCAATT
  switch fluorescence ratio: 1.05 ± 0.028

## GGGTGCAGCG
  switch fluorescence ratio: 0.993 ± 0.03

## GGGTGCGGAC
  switch fluorescence ratio: 1.01 ± 0.042

## GGGTGCGTTC
  switch fluorescence ratio: 0.964 ± 0.027

## GGGTGCGTTG
  switch fluorescence ratio: 1.04 ± 0.024

## GGGTGGAAGC
  switch fluorescence ratio: 1.02 ± 0.018

## GGGTGGAGGG
  switch fluorescence ratio: 0.973 ± 0.012

## GGGTGGATAG
  switch fluorescence ratio: 0.971 ± 0.018

## GGGTGGCTCG
  switch fluorescence ratio: 0.997 ± 0.046

## GGGTGGCTTT
  switch fluorescence ratio: 0.9872 ± 0.0083

## GGGTGGGCAG
  switch fluorescence ratio: 1.009 ± 0.0027

## GGGTGGGGAT
  switch fluorescence ratio: 1 ± 0.02

## GGGTGGGTGT
  switch fluorescence ratio: 1.05 ± 0.057

## GGGTGGTAGA
  switch fluorescence ratio: 1.01 ± 0.04

## GGGTGGTATT
  switch fluorescence ratio: 1.03 ± 0.013

## GGGTGGTGCC
  switch fluorescence ratio: 0.997 ± 0.056

## GGGTGGTGGG
  switch fluorescence ratio: 0.987 ± 0.057

## GGGTGGTGTA
  switch fluorescence ratio: 1.07 ± 0.096

## GGGTGGTGTG
  switch fluorescence ratio: 0.99 ± 0.068

## GGGTGGTTTT
  switch fluorescence ratio: 1.01 ± 0.035

## GGGTGTAGCG
  switch fluorescence ratio: 0.965 ± 0.026

## GGGTGTAGTA
  switch fluorescence ratio: 0.9978 ± 0.0079

## GGGTGTAGTC
  switch fluorescence ratio: 1.02 ± 0.043

## GGGTTAAAGA
  switch fluorescence ratio: 1 ± 0.017

## GGGTTAACGT
  switch fluorescence ratio: 0.987 ± 0.017

## GGGTTAAGGG
  switch fluorescence ratio: 0.984 ± 0.035

## GGGTTACGGG
  switch fluorescence ratio: 1.008 ± 0.0045

## GGGTTAGATG
  switch fluorescence ratio: 0.9893 ± 0.0069

## GGGTTAGGAA
  switch fluorescence ratio: 0.991 ± 0.022

## GGGTTAGGGA
  switch fluorescence ratio: 0.996 ± 0.025

## GGGTTAGGGT
  switch fluorescence ratio: 0.991 ± 0.049

## GGGTTAGTTT
  switch fluorescence ratio: 0.992 ± 0.049

## GGGTTATATT
  switch fluorescence ratio: 0.988 ± 0.024

## GGGTTATCGG
  switch fluorescence ratio: 0.967 ± 0.041

## GGGTTATTAT
  switch fluorescence ratio: 1.01 ± 0.019

## GGGTTCCGGC
  switch fluorescence ratio: 1.03 ± 0.098

## GGGTTCCTAT
  switch fluorescence ratio: 0.987 ± 0.013

## GGGTTCGTTA
  switch fluorescence ratio: 0.993 ± 0.029

## GGGTTCTTAA
  switch fluorescence ratio: 0.981 ± 0.048

## GGGTTGAACC
  switch fluorescence ratio: 0.994 ± 0.032

## GGGTTGAAGG
  switch fluorescence ratio: 0.9875 ± 0.0022

Reference: the supplement of paper PMC10126150
